In assay [1] the target is T1, recombinant SARS-CoV-2 Spike RBD domain, Wuhan (SARS-CoV-2). The experiment in a line: ELISA on coated RBD. The conditions noted are these: remark: other sources report otherwise.
The target in assay [2] is T1, recombinant SARS-CoV-2 Spike RBD …. In words: competition ELISA, blocking of RBD binding to ACE2 ectodomain. The conditions noted are these: remark: other sources report otherwise.

Consider 1 molecule from patent US12281155.

B1: SPK002 antibody (parental version Cv2.3194 described in WO 2022/228827) (antibody, V domains shown)
VH: EVQLVESGGGLIQPGGSLRLSCAASGITVTSNYMSWVRQAPGKGLEWVSVIYPGGSTFYADSVKGRFTISRDNSKNTLYLQMNSLRAEDTAVYYCARDLVVYGMDVWGQGTTVTVS
VL: EIVLTQSPGTLSLSPGERATLSCRASQSVSSSYLAWYQQKPGQAPRLLIYGASSRATGIPGRFSGSGSGTDFTLTISRLEPEDFAIYYCQQGVTFGGGTKVEIK
Take B1: the Binding AUC in assay [1] stood at 34. In addition, in assay [2], the Blocking % came out at 88%.
